Data on 1 substance can be found in US20160222086.

The test system of series [1] is T1, thrombin-activated 40 K-PEG-[O]-rFVIII.
T1 sequence: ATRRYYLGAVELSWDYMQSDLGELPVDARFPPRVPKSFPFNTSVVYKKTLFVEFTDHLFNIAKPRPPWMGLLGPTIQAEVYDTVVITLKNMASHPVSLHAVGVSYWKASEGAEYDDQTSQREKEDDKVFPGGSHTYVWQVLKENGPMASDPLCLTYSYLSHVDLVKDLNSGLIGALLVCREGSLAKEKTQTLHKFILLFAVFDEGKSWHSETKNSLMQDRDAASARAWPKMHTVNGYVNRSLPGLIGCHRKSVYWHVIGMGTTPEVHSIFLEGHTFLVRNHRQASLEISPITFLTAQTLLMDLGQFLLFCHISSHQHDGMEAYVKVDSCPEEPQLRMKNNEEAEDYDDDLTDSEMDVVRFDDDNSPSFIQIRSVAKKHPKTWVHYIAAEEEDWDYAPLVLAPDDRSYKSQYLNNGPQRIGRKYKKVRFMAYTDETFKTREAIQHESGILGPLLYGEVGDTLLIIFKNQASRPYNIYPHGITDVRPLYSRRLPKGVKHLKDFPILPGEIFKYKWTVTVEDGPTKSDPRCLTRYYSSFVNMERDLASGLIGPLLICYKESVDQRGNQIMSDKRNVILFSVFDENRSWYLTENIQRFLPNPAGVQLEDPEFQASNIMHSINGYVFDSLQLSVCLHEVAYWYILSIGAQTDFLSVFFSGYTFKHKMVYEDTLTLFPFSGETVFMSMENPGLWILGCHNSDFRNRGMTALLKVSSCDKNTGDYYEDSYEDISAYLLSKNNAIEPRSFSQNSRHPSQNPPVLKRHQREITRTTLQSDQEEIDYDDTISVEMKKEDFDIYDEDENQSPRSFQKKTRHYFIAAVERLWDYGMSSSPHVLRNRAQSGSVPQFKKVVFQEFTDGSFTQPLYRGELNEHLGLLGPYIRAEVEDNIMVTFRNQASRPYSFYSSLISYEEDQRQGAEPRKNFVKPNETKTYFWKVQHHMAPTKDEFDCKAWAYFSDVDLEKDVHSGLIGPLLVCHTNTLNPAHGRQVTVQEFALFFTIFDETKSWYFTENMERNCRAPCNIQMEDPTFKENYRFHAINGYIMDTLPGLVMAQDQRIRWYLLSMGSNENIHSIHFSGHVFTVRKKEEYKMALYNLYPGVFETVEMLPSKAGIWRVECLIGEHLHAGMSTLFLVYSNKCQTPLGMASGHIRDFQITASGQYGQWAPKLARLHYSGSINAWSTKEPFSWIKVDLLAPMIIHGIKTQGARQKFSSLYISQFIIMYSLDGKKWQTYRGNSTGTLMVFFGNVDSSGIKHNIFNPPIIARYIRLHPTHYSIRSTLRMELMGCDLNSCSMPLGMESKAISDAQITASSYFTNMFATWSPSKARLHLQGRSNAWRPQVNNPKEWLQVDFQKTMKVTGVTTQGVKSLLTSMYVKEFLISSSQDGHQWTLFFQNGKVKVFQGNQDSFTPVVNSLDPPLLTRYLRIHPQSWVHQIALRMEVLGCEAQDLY

Series [2] concerns T2, thrombin-activated 80 K-PEG-[O]-rFVIII.
T2 sequence: T1 sequence

Series [3] relates to T3, thrombin-activated rFVIII (rFVIIIa), made from the recombinant B-domain truncated Factor VIII N8.
T3 sequence: T1 sequence

As to FIXa, the results for the K1/2FIXa in series [1], in series [2] and in series [3] were 0.42 nM, 1.11 nM and 0.88 nM, respectively. Also, the “apparent Kd of rFVIIIa-FIXa interaction (K1/2FIXa)” value in series [1] and in series [2] was “O-linked glycoPEGylation did not affect the apparent Kd of rFVIIIa-FIXa interaction (K1/2FIXa)” in each case.
